These are literature values, as cited in patent US11033606B2, “Composition comprising aflibercept, folinic acid, 5-fluorouracil (5-FU) and irinotecan (FOLFIRI)” (SANOFI, priority 2011, dated 2021).

In data set [1] the test system is previously treated patients with metastatic colorectal cancer. The note with it: pre-treated patients with MCRC.
The test system of data set [2] is non-small cell lung cancer (NSCLC). The note with it: aflibercept added to docetaxel vs docetaxel plus placebo, second-line NSCLC.

Turning to “aflibercept: fusion protein: VEGFR1 D2 Ig domain fused to VEGFR2 D3 Ig domain, fused to IgG1 Fc domain (SEQ ID No 1)”, the Tolerability result in data set [1] is on record as “well tolerated”. For the same substance, the “Primary endpoint of improvement in overall survival” value in data set [2] is given as “did not meet the pre-specified criteria”.
